Tests used:
[1] = system: ER stress markers (BIP, CHOP, p-eIF-2α); test: ER stress markers in the corpus callosum during remyelination (real time PCR, Western blot); assay type: in vivo, mice
Method: Repression of remyelination by IFN-γ is associated with ER stress. […] To determine whether IFN-γ interferes with endoplasmic reticulum (ER) function in remyelinating oligodendrocytes, the expression of ER stress markers was monitored in the corpus callosum of mice expressing IFN-γ. The study was performed using the transgenic mice described in Example 1.
The level of mRNA encoding ER stress associated genes binding immunoglobulin protein/78 KDa glucose regulated protein (BIP/GRP78) and the CAATT enhancer-binding protein homologous protein/growth and DNA damage protein 153 (CHOP/GADD153), was determined using real time PCR, as described in Example 1 in the corpus callosum of the cuprizone treated mice of Example 1. The probes, sense and antisense primers that were used were: […]
The level of phosphorylated eIF-2α, which inhibits nucleotide exchange on the eIF-2 complex and attenuates most protein synthesis, was analyzed by Western blot, and the expression was colocalized by immunostaining CC1 antibodies as described above. Western blot analysis was performed as follows. The corpus callosum from 3 mice was rinsed in ice cold phosphate-buffered saline (PBS) and pooled, and immediately homogenized in 5 volumes of Triton X-100 buffer (20 mM HEPES pH 7.5, 150 mM NaCl, 1% Triton X-100, 10% glycerol, 1 mM EDTA, 10 mM tetrasodium pyrophosphate, 100 mM NaF, 17.5 mM β-glycerophosphate, 10 mM phenylmethylsulfonyl fluoride, 15 μg/ml aprotonin, and 6 μg/ml pepstatin A) using a motorized homogenizer. After incubation on ice for 15 min, the extracts were cleared by centrifugation at 14,000 rpm twice for 30 min each. The protein content of each extract was determined by protein assay (Bio-Rad). The extracts (40 μg) were separated by sodium dodecyl sulfate-polyacrylamide gel electrophoresis and transferred to nitrocellulose. […] The following primary antibodies were used: anti-eIF-2α (1:500; Santa Cruz, Santa Cruz, Calif.), anti-p-eIF-2α (1:1000, Cell signaling Technology), anti-CHOP (1:500; Santa Cruz) and anti-actin (1:1000; Sigma, St Louis, Mo.).

rat oligodendrocytes = test: IFN-γ-induced apoptosis in cultured rat oligodendrocytes (TUNEL/CNP, caspase-3 activity); assay type: cell-based
Method: To test whether apoptosis of oligodendrocytes that is induced by INF-γ affects ER stress, the effect on the morphology, the degree of apoptosis and the expression of ER markers was studied in a culture of oligodendrocyte precursor cells (OPC). Oligodendrocyte progenitors were cultured from neonatal rat brains (Baerwald, et al. (1998) J. Neurosci. Res. 52: 230-239). A mixed glial culture was grown in flasks in medium containing 10% fetal bovine serum (FBS), and when the astrocyte layer became confluent (10-14 days), oligodendrocyte progenitors were separated from astrocytes and microglia using an orbital shaker. Cells, greater than 95% of which were A2B5 positive, GFAP negative and CD11b negative, were cultured in 0.5% FBS containing medium, which also contained PDGF (10 ng/ml) and FGF (5 ng/ml) (both from R&D Systems, Minneapolis, Minn.). Then cells were switched to 0.5% FBS medium without PDGF and FGF for differentiation. […]
The level of apoptosis of the OPC cells was determined by double staining CNP (1:200; Sternberger Monoclonals, Lutherville, Md.) and TUNEL using the ApopTag Kit (Serologicals Corp., Norcross, Calif.) and following the manufacturer's instructions. Apoptosis was also evaluated by measuring the activity of caspase-3 in oligodendrocyte lysates using the Fluorimetric Caspase 3 Assay Kit (Sigma, St. Louis, Mo.), according to the manufacturer's instructions.

[2] = DOX− compared to control DOX+ mice

B1: IFN-γ: pleotropic cytokine secreted by activated T lymphocytes and natural killer cells; recombinant rat IFN-γ added to cultures or transgenically expressed in mouse CNS (protein, UniProt P01581 23-156, looked up)
Interferon gamma: QGTLIESLESLKNYFNSSSMDAMEGKSLLLDIWRNWQKDGNTKILESQIISFYLRLFEVLKDNQAISNNISVIESHLITNFFSNSKAKKDAFMSIAKFEVNNPQIQHKAVNELIRVIHQLSPESSLRKRKRSRC
With B1 the “level of mRNA for BIP” value [1, 2] was “approximately 2 fold”, the “level of mRNA for CHOP” value [1, 2] was “approximately 2 fold” and the “level of phosphorylated eIF-2α (Western blot)” value ([1]; DOX− double transgenic mice) was “approximately 1.8 fold”. For the same molecule, the “level of the CHOP protein (Western blot)” value ([1]; DOX− double transgenic mice) was “approximately 1.7 fold”, the “caspase-3 activity in the cell lysates” value (rat oligodendrocytes; 70 U/ml IFN-γ) was “markedly increased” and the “TUNEL and CNP double labeling (apoptosis)” value (rat oligodendrocytes; 70 U/ml IFN-γ for 48 h, oligodendrocytes differentiated 5 days) was “induced apoptosis in a significant number of oligodendrocytes”.
